The supplement of paper PMC10126150
± gives the standard deviation of the averaged measurements.

test system: ATP; assay: switch fluorescence ratio, 500 uM ATP over buffer (Cy3 cluster intensity, sum of 5 cycles each) (fold (ratio)); higher = stronger signal-on switching upon ATP binding; sequences stand for … in TCGTCGGCAGCGTCAGATGTGTATAAGAGACAGTTTTTTTTTTTTTTTTTTTTTTTTT…TC; details: aptamer strand: ATP DNA aptamer (quencher-CACCTGGGGGAGTATTGCGGAGGAAGG + anchor), 100 nM annealed; ATP concentration: 500 uM
Method in brief: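 Clusters with intensities outside 100-1000 RFU were excluded. The remaining Cy3-labelled switching-strand clusters on a modified Illumina MiSeq flow-cell had been annealed to 100 nM quencher-labelled ATP aptamer and imaged in selection buffer, then after 15 min with 500 uM ATP at 22 °C, for five cycles separated by NaOH stripping and re-annealing. The fluorescence ratio, averaged per switch-domain sequence, is each cluster's summed target-cycle Cy3 intensity over its summed buffer-cycle Cy3 intensity.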
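Note: ATP exposure 15 min at 22 °C before imaging.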

Sequence	switch fluorescence ratio
TGACGAAGGA	1.23 ± 0.3
TGACGACCGC	3.33 ± 0.48
TGACGAGGGG	0.967 ± 0.031
TGACGCAGGT	1.38 ± 0.04
TGACGCGCGT	1.014 ± 0.0018
TGACGGAGGC	1.06 ± 0.051
TGACGGCCAG	1.01 ± 0.013
TGACGGGTTT	1.06 ± 0.12
TGACGTTATC	1.18 ± 0.025
TGACGTTCAG	0.996 ± 0.02
TGACTGCTGG	1.01 ± 0.027
TGACTGGGAA	1.06 ± 0.091
TGAGAAGGGG	0.991 ± 0.041
TGAGACAATA	1.1 ± 0.011
TGAGAGAAGT	0.968 ± 0.071
TGAGAGAGAA	1.01 ± 0.019
TGAGAGATTT	0.984 ± 0.011
TGAGAGGCGA	1.01 ± 0.011
TGAGAGTAAC	0.946 ± 0.07
TGAGAGTTTA	1.024 ± 0.0062
TGAGATTAAA	1.01 ± 0.0098
TGAGATTTGT	1.06 ± 0.12
TGAGCAGAGG	1.04 ± 0.015
TGAGCAGTTG	1.06 ± 0.12
TGAGCATAGT	1.026 ± 0.0023

Sequence	switch fluorescence ratio
TGAGCCCACG	1.027 ± 0.0039
TGAGCTTTTT	0.993 ± 0.03
TGAGGAAAGA	0.988 ± 0.035
TGAGGAAGGG	1.04 ± 0.099
TGAGGAATGT	1.0157 ± 0.00058
TGAGGACCCT	1.02 ± 0.025
TGAGGCAAGG	1.69 ± 0.47
TGAGGCGGGT	1.05 ± 0.016
TGAGGGAATT	1.01 ± 0.018
TGAGGGATGT	1.04 ± 0.059
TGAGGGGAGT	0.9908 ± 0.0067
TGAGGGGATA	1.01 ± 0.025
TGAGGGGGAC	1.02 ± 0.087
TGAGGGGGTT	0.997 ± 0.049
TGAGGGGTAG	0.988 ± 0.05
TGAGGGTAAG	1.13 ± 0.21
TGAGGGTTCT	0.979 ± 0.02
TGAGGTATG	0.971 ± 0.046
TGAGGTATTA	1.0075 ± 0.00077
TGAGGTGGTG	1.01 ± 0.0074
TGAGGTGTTG	1.01 ± 0.063
TGAGGTTGGC	1.01 ± 0.023
TGAGTAACAG	0.981 ± 0.012
TGAGTAATTT	1.01 ± 0.037
TGAGTACGTC	1.06 ± 0.14

Sequence	switch fluorescence ratio
TGAGTCAGTG	1.0116 ± 0.00046
TGAGTCCATT	0.985 ± 0.018
TGAGTCGCGT	1.01 ± 0.013
TGAGTGTGGG	0.99 ± 0.03
TGAGTGTGTA	1.03 ± 0.042
TGAGTTAAAG	0.9876 ± 0.0082
TGAGTTAAGT	0.997 ± 0.01
TGAGTTATCG	0.968 ± 0.033
TGAGTTCTTG	0.982 ± 0.046
TGAGTTGGAC	1.08 ± 0.067
TGAGTTGGAG	0.9878 ± 0.002
TGAGTTGGCT	1.02 ± 0.014
TGAGTTGGGA	1.002 ± 0.0057
TGAGTTGGTT	0.973 ± 0.026
TGAGTTGTTT	0.985 ± 0.013
TGAGTTTGCG	1.01 ± 0.075
TGAGTTTTAG	0.972 ± 0.031
TGAGTTTTTT	0.982 ± 0.039
TGATAAATGT	1.13 ± 0.19
TGATAACTCC	1.03 ± 0.036
TGATAAGGAG	1.01 ± 0.012
TGATACTGAT	1.02 ± 0.058
TGATAGATGC	1.03 ± 0.025
TGATAGGGAG	0.982 ± 0.019
TGATAGGGGA	1.01 ± 0.047

Sequence	switch fluorescence ratio
TGATAGTCCT	1.03 ± 0.013
TGATATACTG	0.968 ± 0.026
TGATATGTAA	1.021 ± 0.0094
TGATATTGAG	1 ± 0.045
TGATATTTTT	0.998 ± 0.028
TGATCAGGAG	0.9853 ± 0.0053
TGATCATCTA	0.993 ± 0.024
TGATCGGCGG	1.02 ± 0.05
TGATCGGGGA	1.028 ± 0.0063
TGATCGGGTA	1 ± 0.011
TGATCTCTTT	1.03 ± 0.049
TGATCTGGGG	1.01 ± 0.033
TGATGAGATT	0.999 ± 0.02
TGATGAGCTC	0.983 ± 0.02
TGATGAGTCT	1.03 ± 0.062
TGATGATTTT	0.945 ± 0.017
TGATGCGGAT	1.016 ± 0.0013
TGATGCTTCA	1 ± 0.037
TGATGGAGAG	0.97 ± 0.034
TGATGGAGGC	1.01 ± 0.013
TGATGGCCTG	0.986 ± 0.067
TGATGGCGGG	0.9917 ± 0.0042
TGATGGCGGT	1.04 ± 0.065
TGATGGGCAG	1.01 ± 0.047
TGATGGGGAT	1.03 ± 0.017

Sequence	switch fluorescence ratio
TGATGGGGGA	1.01 ± 0.03
TGATGGGGTA	1.04 ± 0.019
TGATGGGTGC	1.04 ± 0.045
TGATGGGTTA	0.962 ± 0.029
TGATGGTATA	1.01 ± 0.025
TGATGGTGGG	0.979 ± 0.029
TGATGGTGTC	0.968 ± 0.011
TGATGTCCGT	0.997 ± 0.02
TGATGTCGGG	0.999 ± 0.034
TGATGTGAAA	0.977 ± 0.015
TGATGTTGT	1.005 ± 0.0071
TGATTAAGGG	0.9752 ± 0.0072
TGATTACAGT	1 ± 0.018
TGATTAGGGG	0.9948 ± 0.0096
TGATTCAGTA	0.974 ± 0.011
TGATTCTAAT	1 ± 0.042
TGATTGAATG	0.9785 ± 0.001
TGATTGACGG	0.975 ± 0.015
TGATTGAGGA	0.981 ± 0.027
TGATTGATAT	1.01 ± 0.012
TGATTGCCCG	0.9376 ± 0.0077
TGATTGCTAT	1.01 ± 0.039
TGATTGGGCT	1.03 ± 0.015
TGATTGGGGA	1.005 ± 0.0043
TGATTGGGTT	0.975 ± 0.022

Sequence	switch fluorescence ratio
TGATTGGTTT	1 ± 0.011
TGATTGTGAA	1 ± 0.024
TGATTTAGAG	0.998 ± 0.013
TGATTTAGTT	0.989 ± 0.02
TGATTTGCGA	0.987 ± 0.02
TGATTTTACC	1.06 ± 0.015
TGATTTTAGG	0.9832 ± 0.0061
TGATTTTCGT	1 ± 0.044
TGCAAAAGGT	1.02 ± 0.087
TGCAAAGGGG	1.01 ± 0.029
TGCAAGAGTG	1.03 ± 0.011
TGCAATCGGT	1.22 ± 0.065
TGCAATTACT	3.21 ± 0.24
TGCAATTGGT	1.01 ± 0.016
TGCACAAGAT	1.02 ± 0.011
TGCACCATTT	1.02 ± 0.014
TGCACGGGGG	1.03 ± 0.013
TGCACTGTTT	1.01 ± 0.038
TGCACTTTTA	1.01 ± 0.02
TGCAGAAAAT	1.01 ± 0.036
TGCAGACGGT	1.2 ± 0.14
TGCAGCTGGT	0.98 ± 0.021
TGCAGGGTTT	0.9906 ± 0.0082
TGCAGGTTAC	1.12 ± 0.015
TGCAGTAGTT	1.012 ± 0.005

Sequence	switch fluorescence ratio
TGCAGTCATG	0.995 ± 0.03
TGCAGTGATC	1.11 ± 0.056
TGCAGTGTGC	1.01 ± 0.015
TGCAGTGTGG	1.005 ± 0.0078
TGCATAAATT	0.9873 ± 0.0034
TGCATAACGT	1.02 ± 0.024
TGCATCAATA	1.03 ± 0.039
TGCATCATTG	0.988 ± 0.039
TGCATGATTG	0.967 ± 0.02
TGCATGGGTG	1.06 ± 0.039
TGCATGTACA	1.04 ± 0.037
TGCATTAGGA	1.02 ± 0.024
TGCATTCGTT	1.008 ± 0.009
TGCATTGGGC	1.03 ± 0.013
TGCATTGGGG	1 ± 0.024
TGCCACGCTC	1.06 ± 0.029
TGCCACTCCT	1.0495 ± 4.1e-05
TGCCATAGG	1.008 ± 0.0032
TGCCATCCGA	1.09 ± 0.054
TGCCATGACG	0.936 ± 0.046
TGCCATTGGG	1.08 ± 0.12
TGCCCATAGT	1.009 ± 0.003
TGCCCCACGT	1.17 ± 0.16
TGCCGCAGAG	1.6 ± 0.16
TGCCGGGAGT	1.41 ± 0.61

Sequence	switch fluorescence ratio
TGCCGTAGGG	1.04 ± 0.041
TGCCGTAGTC	0.9685 ± 0.0092
TGCCGTTCTT	1 ± 0.021
TGCCGTTTGG	1 ± 0.03
TGCCTATGGA	1 ± 0.014
TGCCTCTAGA	1.1 ± 0.044
TGCGAAAGAT	1.05 ± 0.086
TGCGAACCTT	1.71 ± 0.12
TGCGAAGGGT	0.9856 ± 0.0046
TGCGAAGGTT	1.04 ± 0.069
TGCGACGAGG	1.04 ± 0.0011
TGCGATGCGG	0.979 ± 0.037
TGCGCCCGTT	1 ± 0.033
TGCGCCGTTT	1.01 ± 0.017
TGCGCCTGGG	1.03 ± 0.013
TGCGCGAAAG	0.98 ± 0.042
TGCGCTTTTT	1.03 ± 0.061
TGCGGCTG	1.05 ± 0.039
TGCGGGAGGG	1.26 ± 0.35
TGCGGGGGGG	1.03 ± 0.038
TGCGGTAGGT	0.991 ± 0.018
TGCGGTGACC	1 ± 0.014
TGCGGTGTCG	1.06 ± 0.083
TGCGGTTATG	1.07 ± 0.051
TGCGGTTTTT	0.998 ± 0.02
